The text below walks through data of the RNAGym collection of RNA variant scans (doi:10.7554/elife.80360).

B1: CPEB3 Ribozyme (parent)
chain: GGGGGCCACAGCAGAAGCGUUCACGUCGCGGCCCCUGUCAGAUUCUGGUGAAUCUGCGAAUUCUGCUGU

In the series the parent is B1. Put plainly: self-cleavage, relative activity (ratio to wild type); higher = more cleavage; co-transcriptional.
In the case of C18U C35U, the self-cleavage stood at 0.687.
In the case of G19U U36A, the self-cleavage turned out to be 0.164.
In the case of G19U U36C, the self-cleavage worked out at 0.212.
G19C U43G: the self-cleavage stood at 0.122.
G19C U43C: the self-cleavage was found to be 0.134.
Consider G19A C33G, for which the self-cleavage amounted to 0.172.
As for C18U G28U, the figure is 0.206.
As for C18U G28C, the figure is 0.174.
The value for C18U G58C was 0.852.
Turning to C18U A40G, the self-cleavage came out at 0.742.
The value for C18U A40U was 0.378; that for U20C U53G was 0.167.
As for U20C U53A, the self-cleavage stood at 0.135.
As for C18U C32G, the figure is 0.213; as for G19A A42G, 0.166; as for G19A A42C, 0.13.
Take G19C A40C: the self-cleavage was 0.0886.
As for U20C C66G, the figure is 0.179; as for U20A U67A, 0.12.
The value for G19A G68A was 0.18.
The value for G19A G68C was 0.209; that for U20A U21G was 0.2; that for U20A U21A was 0.219.
Take G19U U53C: the self-cleavage was 0.242.
As for G19U U53G, the figure is 0.252; as for G19U U53A, 0.273.
With G19C C32G, the self-cleavage worked out at 0.207.
For U20C C57U, the self-cleavage was determined as 0.194.
The value for U20C C57A was 0.232; that for U20C G65C was 0.126.
Turning to U20C G65U, the self-cleavage stood at 0.18.
The value for C18U C34U was 0.919; that for C18U C34G was 0.426.
As for U20A A60U, the figure is 0.117; as for G19A U20A, 0.145; as for G19A U20C, 0.166.
The value for C18U U67G was 0.922; that for G19A G58A was 0.132; that for C18U G30A was 0.282.
Take G19U C45A: the self-cleavage worked out at 0.459.
As for G19U G58C, the figure is 0.443.
As for G19A C39G, the figure is 0.149; as for U20G U26G, 0.123.
Turning to U20G U26A, the self-cleavage turned out to be 0.163.
As for U20C U43A, the figure is 0.227.
Consider U20C U43G, for which the self-cleavage was found to be 0.241.
The value for G19U G56U was 0.281.
On to U20G C57G, for which the self-cleavage was found to be 0.181.
The value for U20G C57A was 0.124.
The value for G19A G31A was 0.17; that for G19U U38C was 0.252; that for U20C U36C was 0.159.
The value for U20C U36G was 0.116; that for U20A A40C was 0.188.
As to U20A A40U, the self-cleavage was determined as 0.0825.
The value for U20G C22U was 0.141; that for G19A A59U was 0.169.
As for G19A G48C, the figure is 0.188; as for G19U U55A, 0.209; as for G19U U55G, 0.127.
The value for G19C U69A was 0.147.
Turning to U20A C33A, the self-cleavage was 0.166.
The value for U20A C33G was 0.192; that for U20A C33U was 0.2; that for G19C U21G was 0.161.
As for U20A A23G, the figure is 0.041; as for U20A A23U, 0.192.
As for U20A A42U, the figure is 0.133; as for G19C U38C, 0.135; as for G19C U38A, 0.218.
On to C18U G48A, for which the self-cleavage worked out at 0.948.
As for G19C G47A, the figure is 0.169; as for U20A U26A, 0.0885.
For the variant C18G U20A, the self-cleavage came to 0.0787.
Take U20C U61G: the self-cleavage came out at 0.226.
The value for G19U C34U was 0.545.
As for G19U C34G, the self-cleavage came out at 0.232.
As for G19U C34A, the figure is 0.195; as for U20A C24G, 0.0902; as for G19U G47A, 0.655.
The value for G19U G47C was 0.677; that for C18U A51C was 0.771; that for U20A C27A was 0.151.
Turning to C18U U55G, the self-cleavage is 0.39.
For the variant U20G A51U, the self-cleavage stood at 0.219.
In the case of U20G A51C, the self-cleavage turned out to be 0.27.
Turning to U20C U21G, the self-cleavage is 0.211.
Take U20C U21C: the self-cleavage was 0.197.
The value for C18U G65U was 0.245.
The value for U20A G65A was 0.156.
The value for C18G U49A was 0.259; that for U20C G30A was 0.17; that for U20A U43A was 0.152.
Regarding G19C C22U, the self-cleavage turned out to be 0.158.
As for U20C U55G, the figure is 0.203; as for U20C U55C, 0.139; as for C18G G58A, 0.104.
The value for G19C U67C was 0.203; that for C18U A59U was 0.445.
The value for C18U A59C was 0.32; that for C18U G50C was 0.803; that for C18U G50U was 0.906.
For the variant U20A U49C, the self-cleavage amounted to 0.275.
The value for U20A U49G was 0.199; that for U20C G50A was 0.174; that for U20C G50C was 0.102.
The value for G19A G56U was 0.155; that for C18U A42U was 0.687.
As for U20C A42C, the figure is 0.199; as for U20C A42U, 0.271; as for G19A C32G, 0.153.
For the variant G19A C32U, the self-cleavage is 0.216.
As for C18U C33A, the figure is 0.278; as for C18U C33G, 0.304; as for U20G G65C, 0.166.
The value for U20C G48C was 0.229; that for C18U U43A was 0.549; that for G19C C35U was 0.163.
In the case of G19U G50U, the self-cleavage turned out to be 0.509.
As for G19C C39U, the figure is 0.158; as for G19C C39G, 0.162.
In the case of U20G C29U, the self-cleavage was 0.137.
As for G19U C32U, the figure is 0.55; as for C18G U38A, 0.158; as for U20A G47U, 0.179.
The value for U20A G47C was 0.261.
In the case of G19C G41U, the self-cleavage stood at 0.129.
The value for U20G C66A was 0.23; that for U20G C66G was 0.15; that for U20A G48U was 0.104.
Regarding U20A G48C, the self-cleavage came to 0.117.
The value for G19U C63U was 0.318.
The value for G19U C63G was 0.249; that for G19C C29U was 0.112; that for C18G U62G was 0.173.
As for G19A G50U, the figure is 0.133; as for U20G C34A, 0.223.
With U20C C22A, the self-cleavage came out at 0.201.
As for G19U U49A, the figure is 0.639.
As for U20C A23G, the figure is 0.238; as for G19U A51C, 0.432.
As for U20A C45A, the figure is 0.142.
For the variant U20A C45G, the self-cleavage was 0.149.
In the case of C18U C45U, the self-cleavage turned out to be 0.877.
With C18U C45G, the self-cleavage was 0.778.
The value for U20A C63U was 0.16.
As for G19U A23G, the figure is 0.262; as for G19A U38G, 0.156; as for C18U U20G, 0.28.
As for U20C C27A, the figure is 0.17; as for U20G G28U, 0.161; as for G19A U44C, 0.16.
Turning to G19C U53C, the self-cleavage stood at 0.0977.
The value for U20G A59C was 0.1.
For G19A A51G, the self-cleavage was 0.172.
As for G19A A51C, the figure is 0.161; as for C18U U36G, 0.19.
With G19U U69G, the self-cleavage is 0.819.
In the case of U20A U38A, the self-cleavage came out at 0.188.
As for U20A U38C, the figure is 0.107; as for U20C U62A, 0.133.
As to U20C U62G, the self-cleavage is 0.278.
As for C18U U62G, the figure is 0.494.
Consider C18G U67G, for which the self-cleavage was found to be 0.229.
In the case of U20G G68U, the self-cleavage stood at 0.183.
As for G19C G58A, the figure is 0.162; as for G19U G30C, 0.186.
